From US20240132624A1

How the values were obtained:
human FcRn/b2M (human) [1] = target: human FcRn/b2M (human) (UniProt P61769); experiment: SPR; pH 7.4 vs pH 6.0
human FcRn/b2M (human) [2] = target: human FcRn/b2M (human) (UniProt P61769); experiment: SPR pH 7.4
human FcRn/b2M (human) [3] = target: human FcRn/b2M (human) (UniProt P61769); experiment: SPR pH 6.0

human FcRn/b2M (human), sequence (chain, as listed by the source limits assumed, chain 1 of 2): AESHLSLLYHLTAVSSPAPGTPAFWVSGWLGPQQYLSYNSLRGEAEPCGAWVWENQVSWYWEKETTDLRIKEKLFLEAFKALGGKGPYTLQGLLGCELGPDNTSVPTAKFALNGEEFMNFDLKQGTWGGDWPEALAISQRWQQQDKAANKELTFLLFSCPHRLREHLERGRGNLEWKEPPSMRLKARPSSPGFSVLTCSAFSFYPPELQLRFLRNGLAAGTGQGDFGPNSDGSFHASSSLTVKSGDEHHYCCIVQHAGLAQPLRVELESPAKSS
human FcRn/b2M (human), sequence (P61769 21-119 limits assumed, chain 2 of 2): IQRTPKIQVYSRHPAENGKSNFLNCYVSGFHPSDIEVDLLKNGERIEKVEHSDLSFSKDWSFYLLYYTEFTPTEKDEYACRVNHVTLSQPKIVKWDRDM

B1: T0263018B11 bivalent (VHH, part only; not given: linker, not shown: small tags and cut ends)
chain, part: EVQLVESGGGVVQPGGSLRLSCAASGFTFSSYAMYWVRQAPGKGLEWVSAISSGGGSTDYADSVKGRFTISRDNSKNTLYLQMNSLRPEDTALYYCAADTLYTSLTWYSYWGQGTLVTVSSEVQLVESGGGVVQPGGSLRLSCAASGFTFSSYAMYWVRQAPGKGLEWVSAISSGGGSTDYADSVKGRFTISRDNSKNTLYLQMNSLRPEDTALYYCAADTLYTSLTWYSYWGQGTLVTVSS
KD ratio pH 7.4/6.0 (human FcRn/b2M (human) [1]): 54 | Kd (human FcRn/b2M (human) [2]): 1000 nM | Kd (human FcRn/b2M (human) [3]): 19 nM
